According to PMC10154330, “Machine learning-driven multifunctional peptide engineering for sustained ocular drug delivery” (Nature Communications, 2023):
Like-named read-outs stand apart in the source and are kept apart here. Peptide text beside a SMILES is read from it. * marks the point of attachment. X1 = CC(C)[C@H](NC(=O)CCCCCN1C(=O)CC(*)C1=O)C(=O)N[C@@H](CCCNC(N)=O)C(=O)Nc1ccc(C[N+]2=C(Nc3ccc4nccnc4c3Br)NCC2)cc1

How the values were obtained:
[1] = system: melanin nanoparticles (mNPs); assay: In vitro melanin binding assay (binding capacity and Kd, RED device, HPLC); design: species or system Sepia officinalis; details: for Binding Capacity (mole/mg melanin) / Kd: binding capacity and dissociation constant of ocular drugs, melanin
Experimental: The solutions (400 µL) were then mixed thoroughly with 400 µL of 1 mg/mL mNPs in pH 6.5 PBS solution and transferred to the inner reservoir of the rapid equilibrium dialysis (RED) device inserts (8 K MWCO). The outer reservoir was filled with 800 µL of pH 6.5 PBS solution. The samples were incubated on an orbital shaker with temperature control at 37 °C and 300 rpm for 48 h (n = 3). The solutions from outer reservoir (free drug) were than collected and transferred to an autosampler vial for HPLC analysis (Prominence LC2030, Shimadzu, Columbia, MD) with photodiode-array detection (PDA) system. […] The amount of bound drug was used to calculate the binding capacity (mol drug/mg melanin) and the dissociation constant (Kd) as previously described[20],[34].

[2] = In vitro stability of HR97-brimonidine conjugate in human aqueous or vitreous; assay type: in vitro ADME; details: for remaining at 24 h, 1 mg/mL / remaining at 168 h, 1 mg/mL / remaining at 336 h, 1 mg/mL / remaining at 672 h, 1 mg/mL: male, human, human aqueous humor (donor eyes, 0.02 µm filtered), stability in human aqueous humor, read-out: Normalized HR97-VC-PAB-brimonidine (%)
Experimental: Two pairs of human donor eyes were obtained from the Lions Gift of Sight under protocol IRB00056984 approved by the Johns Hopkins University School of Medicine Institutional Review Board. Both donors were male with an mean age of 74.5. The post-mortem times ranged from 35–40 h. The eyes were kept at 4 °C during transport and arrived within 48 h post-mortem. The vitreous and aqueous were first isolated and subsequently combined and filtered through the 0.02 µm syringe filter to remove cell debris. HR97-brimonidine (1 mg/mL) was incubated with human aqueous or vitreous (700 µL) at 37 °C (n = 3). On days 0, 1, 7, 14, 21 and 28, 100 µL of the solutions were collected, diluted with 900 µL of acetonitrile, and characterized by HPLC (Prominence LC2030, Shimadzu) with Luna® 5 µm C18(2) 100 Å LC column 250 × 4.6 mm (Phenomenex). The elution flow rate was 1 mL/min and with gradient of 10/90/90/10% solvent B (TFA 0.1% in ACN) in 1/11/13/15 min at λmax = 250 nm for HR97-brimonidine (RT = 4.6 min).

[3] = Ocular safety evaluation / ocular grading after ICM injection; details: single ICM injection, 200 µg brimonidine equivalent
Experimental: (§1) For the IOP measurements in normotensive rabbits, Dutch Belted rabbits (2–3 kg) were used (n = 5). IOP was measured with a hand-held rebound tonometer icareTONOVET (Vantaa, Finland) in the awake and gently restrained rabbit. Each rabbit was acclimatized to the IOP measurement procedure for at least 5 days to obtain a stable background IOP reading. A mean of three IOP measurements for an individual eye were taken every other day for 6 days (3 times in total) and used as a baseline value. For the ICM injection procedure, rabbits were anesthetized with ketamine/xylazine and received topical anesthesia with 0.5% proparacaine hydrochloride. A corneal pre-puncture was performed with a 30 G needle, followed with a single bolus ICM injection of 200 µg (mass of brimonidine) of HR97-brimonidine or brimonidine tartrate solution in 100 µL saline using a 28 G needle. After the procedure, topical bacitracin-neomycin-polymyxin ophthalmic ointment was applied to both eyes to prevent infection and dry eyes. On day 7, an ophthalmologist masked to treatment evaluate the HR97-brimonidine injected eyes with the following items: functionality of lids, lashes, conjunctiva, cornea transparency, pigmentation of corneal endothelium, depth of anterior chambers, inflammation, fibrin strands, and symmetry of the lens[113]. […] In a separate study, a corneal pre-puncture was performed with a 30 G needle, followed with a single bolus ICM injection of 200 µg (mass of brimonidine) containing a physical mixture of unconjugated HR97 and brimonidine tartrate (HR97 + brimonidine), the equivalent amount of HR97 peptide alone, or saline alone in 100 µL saline. On day 7, day 14, day 21, and day 28, an ophthalmologist masked to treatment performed the same safety evaluations described above. IOP was measured on days 2, 3, 4, 5, 6, 7, 8, 10, 12, 14, 16, 18, and 20 after the ICM injection, and change in IOP from the baseline (ΔIOP) was reported. The mean of three IOP measurements was taken for each eye by one observer, and then confirmed by a masked observer. Alternatively, a single topical eye drop (Alphagan® P 0.1%, 50 µL) was given (n = 5). The IOP were measured immediately before the topical dosing (0 h), and at 2, 4, 6 and 8 h after the eyedrop administration. For the pharmacokinetics studies, rabbits (n = 4 per group) received a single ICM injection with 200 µg (mass of brimonidine) HR97-brimonidine as described above. Rabbits were sacrificed 1, 7, 14, 28 days after the injection, and iris, aqueous, and retina were collected for measuring the brimonidine concentration.

[4] = Brimonidine in ocular tissues after ICM injection (LC-MS/MS); details: LC-MS/MS
Experimental: as §1
Brimonidine concentrations in ocular tissues were measured by liquid chromatography-tandem mass spectrometry (LC-MS/MS) as previously described. All samples were collected in pre-weighed tubes and stored at −80 °C until processing for analysis. Tissue samples were homogenized in 100–600 μL 1 × PBS using a Bullet Blender® (Next Advance, Inc, Troy, NY, USA) before extraction. Brimonidine were extracted from 15 to 50 μL of tissue homogenates with 50 μL of acetonitrile containing 50/50/2.5 ng/mL of the internal standards. The top layer was then transferred to an autosampler vial for LC-MS/MS analysis after centrifugation. All ocular tissue samples were analyzed using a 1 × PBS standard curve for brimonidine. […] The column effluent was monitored using a 5500 mass-spectrometric detector (Sciex) using electrospray ionization operating in positive mode. The mobile phase A was water containing 0.1% formic acid and mobile phase B was acetonitrile containing 0.1% formic acid. The gradient started with mobile phase B held at 20% for 0.5 min and increased to 100% over 0.5 min; 100% mobile phase B was held for 1 min and then returned to 20% mobile phase B and allowed to equilibrate for 1 min.

[5] = system: human cathepsins B, K, L, and S; assay: Cathepsin cleavage assay
[6] = system: intraocular pressure; assay: IOP measurement in normotensive Dutch Belted rabbits; assay type: in vivo
Experimental: as §1

[7] = 28 days after single ICM injection of HR97-brimonidine (200 µg brimonidine equivalent), n = 3-4

**Q.** What does the source list for CC1(C)O[C@@H]2C[C@H]3[C@@H]4CCC5=CC(=O)C=C[C@]5(C)[C@@]4(F)[C@@H](O)C[C@]3(C)[C@]2(C(=O)CO)O1 [Triamcinolone Acetonide]?
**A.** Binding Capacity (mole/mg melanin) [1]: 2.24E-08 mole/mg melanin; Kd [1]: 12.5 µM

**Q.** For CC(C)(C)NC[C@H](O)COc1nsnc1N1CCOCC1 [Timolol], which “Binding Capacity (mole/mg melanin)” value [1] is on record?
**A.** Its value is 3.9e-8 mole/mg melanin.

**Q.** What about the Kd [1] of the same compound?
**A.** The Kd was 120 µM.

**Q.** Which results are given for CC12CC3CC(C)(C1)CC(N)(C3)C2 [Memantine]?
**A.** Binding Capacity (mole/mg melanin) [1]: 2.07e-7 mole/mg melanin; Kd [1]: 804 µM

**Q.** For CC(C)[C@H](NC(=O)CCCCCN1C(=O)CC(SC[C@H](NC(=O)[C@H](CCCNC(=N)N)NC(=O)[C@@H]2CCCN2C(=O)[C@H](CCCCN)NC(=O)[C@H](CCCNC(=N)N)NC(=O)[C@H](CCCCN)NC(=O)[C@H](CCCNC(=N)N)NC(=O)[C@H](CCCNC(=N)N)NC(=O)[C@H](CCCCN)NC(=O)CNC(=O)[C@H](CO)NC(=O)[C@@H](N)Cc2ccccc2)C(=O)O)C1=O)C(=O)N[C@@H](CCCNC(N)=O)C(=O)Nc1ccc(C[N+]2=C(Nc3ccc4nccnc4c3Br)NCC2)cc1 (stereo partly shown) [HR97-VC-PAB-brimonidine] (H-FSGKRRKRKPRC(X1)-OH; N-terminus and C-terminus assumed), which remaining at 24 h, 1 mg/mL ([2]; day 1, replicate 1) is on record?
**A.** The remaining at 24 h, 1 mg/mL was 99.1%.

**Q.** And the remaining at 24 h, 1 mg/mL ([2]; day 1, replicate 2)?
**A.** The remaining at 24 h, 1 mg/mL was 93.5%.

**Q.** What about the remaining at 24 h, 1 mg/mL ([2]; day 1, replicate 3) of the same compound?
**A.** Its remaining at 24 h, 1 mg/mL is 95.5%.

**Q.** What about the remaining at 168 h, 1 mg/mL ([2]; day 7, replicate 1) of the same compound?
**A.** The remaining at 168 h, 1 mg/mL was 90.8%.

**Q.** And the remaining at 168 h, 1 mg/mL ([2]; day 7, replicate 2)?
**A.** Its remaining at 168 h, 1 mg/mL is 101%.

**Q.** What about the remaining at 168 h, 1 mg/mL ([2]; day 7, replicate 3) of the same compound?
**A.** The remaining at 168 h, 1 mg/mL was 96.4%.

**Q.** And the remaining at 336 h, 1 mg/mL ([2]; day 14, replicate 1)?
**A.** Its remaining at 336 h, 1 mg/mL is 92.6%.

**Q.** And the remaining at 336 h, 1 mg/mL ([2]; day 14, replicate 2)?
**A.** Its remaining at 336 h, 1 mg/mL is 95.3%.

**Q.** What about the remaining at 336 h, 1 mg/mL ([2]; day 14, replicate 3) of the same compound?
**A.** The remaining at 336 h, 1 mg/mL was 93.9%.

**Q.** What about the remaining at 672 h, 1 mg/mL ([2]; day 28, replicate 1) of the same compound?
**A.** The remaining at 672 h, 1 mg/mL was 88.5%.

**Q.** And the remaining at 672 h, 1 mg/mL ([2]; day 28, replicate 2)?
**A.** Its remaining at 672 h, 1 mg/mL is 95%.

**Q.** And the remaining at 672 h, 1 mg/mL ([2]; day 28, replicate 3)?
**A.** The remaining at 672 h, 1 mg/mL was 92.3%.

**Q.** Which results are given for COCCc1ccc(OCC(O)CNC(C)C)cc1 (stereo not shown) [Metoprolol]?
**A.** Binding Capacity (mole/mg melanin) [1]: 2.69E-08 mole/mg melanin; Kd [1]: 495 µM

**Q.** With CCNCCNC(=O)c1c(C)[nH]c(/C=C2\C(=O)Nc3ccc(F)cc32)c1C [N-Desethyl Sunitinib] as the compound, how does the “Binding Capacity (mole/mg melanin)” value [1] read?
**A.** The value was 2.61e-6 mole/mg melanin.

**Q.** What about the Kd [1] of the same compound?
**A.** Its Kd is 2.13 µM.

**Q.** With “FSGKRRKRKPRC [HR97-brimonidine, HR97 peptide conjugated to brimonidine via a quaternary-ammonium traceless linker (MC-Val-Cit-PAB)]” as the compound, how does the “ocular toxicity, ophthalmologist evaluation on day 7” value [3] read?
**A.** The value was “no apparent inflammation or fibrin strands”.

**Q.** What about the “Binding Capacity (mole/mg melanin)” value [1] of the same compound?
**A.** Its value is 5.9e-7 mole/mg melanin.

**Q.** What about the Kd [1] of the same compound?
**A.** Its Kd is 4.36 µM.

**Q.** And the “increase in the in vitro melanin binding capacity of brimonidine by conjugation to HR97” value ([1]; versus brimonidine)?
**A.** Its value is ~ 10 fold.

**Q.** And the “brimonidine concentration in aqueous humor” value [4, 7]?
**A.** Its value is 0.4 ng/g.

**Q.** What about the “brimonidine concentration in iris” value [4, 7] of the same compound?
**A.** The value was 980 ng/g.

**Q.** And the “brimonidine concentration in retina” value [4, 7]?
**A.** The value was 8.3 ng/g.

**Q.** And the “brimonidine concentration in the aqueous” value ([4]; day 7 after single ICM injection of HR97-brimonidine)?
**A.** The value was 83.3 ng/g.

**Q.** And the “brimonidine concentration in the aqueous” value ([4]; day 14 after single ICM injection of HR97-brimonidine)?
**A.** The value was 3.9 ng/g.

**Q.** And the “cathepsin cleavage assay, Cathepsin” value ([5]; replicate 1)?
**A.** Its value is 47.

**Q.** What about the “cathepsin cleavage assay, Cathepsin” value ([5]; replicate 2) of the same compound?
**A.** Its value is 58.

**Q.** What about the “cathepsin cleavage assay, Cathepsin” value ([5]; replicate 3) of the same compound?
**A.** Its value is 42.

**Q.** What about the “brimonidine liberated with human cathepsin cocktails” value ([5]; conjugate 200 μM diluted 1:1 with 100 mM citrate buffer pH 5.5, 5 mM cysteine, cathepsins B, K, L, S 150 nM each, within 48 h, 37 °C, HPLC, normalized to 0 h, n = 3) of the same compound?
**A.** Its value is ~ 52%.

**Q.** What about the “brimonidine released from the conjugate in human aqueous fluid” value ([2]; 1 mg/mL in human aqueous (donor eyes, 0.02 µm filtered), 37 °C, over 28 days, HPLC 250 nm, normalized to day 0, mean of n = 3) of the same compound?
**A.** Its value is ~ 7%.

**Q.** And the “AUClast of cumulative ΔIOP, fold greater compared to brimonidine solution” value ([6]; 20-day measurement period after ICM injection, n = 5, p < 0.001)?
**A.** The value was ~ 17 fold.

**Q.** What about the “time during which mean ΔIOP remained significantly larger than with brimonidine solution or physical mixture” value ([6]; single ICM injection) of the same compound?
**A.** The value was “up to 14 days”.

**Q.** What about the “peak ΔIOP at 2 days” value ([6]; single ICM injection, 200 µg brimonidine equivalent, n = 5) of the same compound?
**A.** The value was −4.9 ± 0.46 mmHg.

**Q.** What about the “time for the mean ΔIOP to return to baseline” value ([6]; single ICM injection, n = 5 per group) of the same compound?
**A.** Its value is 20 days.

**Q.** And the “duration of IOP lowering” value ([6]; single ICM injection, normotensive rabbits)?
**A.** Its value is “up to 18 days”.

**Q.** With CCN(CC)CCCC(C)Nc1ccnc2cc(Cl)ccc12 (stereo not shown) [Chloroquine] as the compound, how does the “Binding Capacity (mole/mg melanin)” value [1] read?
**A.** The value was 3.8e-7 mole/mg melanin.

**Q.** And the Kd [1]?
**A.** The Kd was 76 µM.
